Assay results reported in patent publication US7071384B2, “Methods for commercial production of heterologous laccase in plant tissue and extraction of the laccase from plant seed” (Genencor International, Inc., priority 1997, dated 2006).

Assays:
[1] = Storage stability of rGUS in flaked corn kernels; format: physicochemical
Experimental: Dry corn kernels (12% moisture, 500 g per batch) were cracked using a roller mill (Ferrel-Ross, Oklahoma City, Okla.), then flaked to 0.3 mm thickness using Roskamp flaking rolls (Model K, Roskamp Mfg., Inc., Waterloo, Iowa.). Seven 500-gram batches of flaked corn kernels were placed in zip-lock bags and stored at each of four different temperatures for up to 95 days. The storage stability study was performed in triplicate; three 50-g samples per time and per temperature. To determine the activity of GUS, a 20-g sample was taken from each of the three 50-g bags at the specified time and extracted with 200 ml of 20 mM Tris-HCl pH 7.9 containing 500 mM NaCl and 1 mM CaCl2. Extraction was carried out using a paddle mixer at ambient temperature for 30 min.

[2] = Heat stability of rGUS in whole corn kernels; format: physicochemical
[3] = Large-scale custom milling of transgenic corn, rGUS activity retention; format: physicochemical; conditions: 1,000 kg corn milled, less than 1 min at 90° C., bagged at about 50° C., 2 h at 30° C., overnight at 10° C.
Experimental: The heat stability results obtained in the laboratory were validated on a large scale. During the processing of 1,000 kg of transgenic corn in a custom-milling plant located in Grinnell, Iowa, the corn was exposed for a short time (less than 1 min) to 90° C. The milled corn was bagged at approximately 50° C., transported at ambient temperature (30° C.) for two hours to Iowa State University, and then stored overnight at 10° C. before the rGUS activity was determined.

[4] = rGUS activity after extraction treatments (hexane defatting; SDS/ME buffer); format: physicochemical
Experimental: A portion of the germ sample prepared by the degermination process was defatted by using a Soxhlet apparatus. Forty grams of full-fat germ were extracted with 300 ml of hexane for five hours, and then air-dried at ambient temperature to remove the hexane.
All samples (flaked kernels, full-fat germ and defatted germ) were ground using a coffee grinder before protein extraction. The samples were extracted at 1:4 or 1:10 solid-to-liquid ratio with 50 mM NaPi buffer of pH 7.5. The extraction was carried out for 15 minutes at ambient temperature by using a magnetic stirrer for mixing less than 50-ml and a paddle mixer for greater than 50-ml volumes. After stirring, the suspension was centrifuged at 26,000 g for 25 min at 0° C., and then filtered through a 4-layer of cheesecloth. The extract was assayed for GUS activity (Hood et al., supra) and protein (Jefferson, R. A.; Wilson, K. J. (1991). In The GUS Gene Fusion system. In “Plant Molecular Biology Manual”, Vol. 1, B14, (S. B. Gelven, R. A. Schilperoort and D. P. S. Verma, eds.). Kluwer Academic Publisher, Dordrecht, Belgium. pp.1–33).
To determine whether a complete extraction of rGUS from corn kernels, full-fat germ and defatted germ was achieved, the remaining solids were stained with X-Gluc. […] The Western blot analysis of the spent solids confirmed the presence of unextracted rGUS. […]

[5] = rGUS specific activity after three-step chromatography purification; format: biochemical
Description: Distribution of rGUS in the Corn Kernel Tissue Corn kernels (100 g) were soaked in deionized water for two days. In two days separation of germ, hull and endosperm was completed and soaked for 2–3 days. The first half was soaked for 2 days, and the other half for 3 days. The hulls, endosperm, and germ were manually separated. Each fraction was air-dried at ambient temperature and ground with a coffee grinder (Salton/Maxim Housewares Inc., Mont. Prospect,Ill.). rGUS activity and the moisture content of each ground sample were determined. rGUS activity was determined using the assay described by Jefferson and Wilson (Jefferson, R. A.; Wilson, K. J. (1991). In The GUS Gene Fusion system. In “Plant Molecular Biology Manual”, Vol. 1, B14, (S. B. Gelven, R. A. Schilperoort and D. P. S. Verma, eds.). Kluwer Academic Publisher, Dordrecht, Belgium. pp.1–33). One unit (U) of rGUS activity was defined as the amount of enzyme that converts one nmole of p-nitrophenyl β-D-glucuronide per minute at pH 7.0 and 37° C. Storage and Heat Stability
Purification Recombinant GUS was purified from ground kernels, full-fat germ and defatted germ using a three-step chromatography. Ground corn kernels (75 g), full-fat germ (7.5 g), and defatted germ (7.5 g) samples were extracted with 50 mM NaPi buffer pH 7.5 (buffer A) at 1:4 or 1:10 solid-to-liquid ratio as described in the previous section. Fifteen ml of DEAE-Toyopearl (Supelco, Bellefonte, Pa.) resin in buffer A were added to the centrifuged and filtered extract to adsorb (capture) rGUS. The slurry was mixed with a magnetic stirrer for 15 min at ambient temperature, filtered through a funnel-supported No. 1 filter paper, and washed with 400 ml of buffer A. The washed DEAE resin was packed into a glass column with an inside diameter of 1.5 cm. The adsorbed rGUS was eluted with 0.3 M NaCl in buffer A. The fractions containing rGUS activity were combined, ammoniumsufate (AS) was added to a final concentration of 1 M, and the solution was filtered through a 0.45 μfilter. […]

B1: rGUS: recombinant β-glucuronidase produced in transgenic corn kernels (protein)
chain: MLRPVETPTREIKKLDGLWAFSLDRENCGIDQRWWESALQESRAIAVPGSFNDQFADADIRNYAGNVWYQREVFIPKGWAGQRIVLRFDAVTHYGKVWVNNQEVMEHQGGYTPFEADVTPYVIAGKSVRITVCVNNELNWQTIPPGMVITDENGKKKQSYFHDFFNYAGIHRSVMLYTTPNTWVDDITVVTHVAQDCNHASVDWQVVANGDVSVELRDADQQVVATGQGTSGTLQVVNPHLWQPGEGYLYELCVTAKSQTECDIYPLRVGIRSVAVKGEQFLINHKPFYFTGFGRHEDADLRGKGFDNVLMVHDHALMDWIGANSYRTSHYPYAEEMLDWADEHGIVVIDETAAVGFNLSLGIGFEAGNKPKELYSEEAVNGETQQAHLQAIKELIARDKNHPSVVMWSIANEPDTRPQGAREYFAPLAEATRKLDPTRPITCVNVMFCDAHTDTISDLFDVLCLNRYYGWYVQSGDLETAEKVLEKELLAWQEKLHQPIIITEYGVDTLAGLHSMYTDMWSEEYQCAWLDMYHRVFDRVSAVVGEQVWNFADFATSQGILRVGGNKKGIFTRDRKPKSAAFLLQKRWTGMNFGEKPQQGGKQ
For B1, the “loss of rGUS activity” value ([1]; flaked kernels at 10° C. for up to 3 months) was 23%, the “loss of initial GUS activity” value ([1]; flaked kernels at 25° C. after three weeks (sample spoilage)) was 13% and the “loss of initial rGUS activity” value ([1]; flaked kernels at 37° C. for one week) was 23%. For the same molecule, the rGUS activity loss ([1]; flaked kernels at −29, 10, or 25° C. for up to 2 weeks) was “no significant loss of rGUS activity”, the “loss of rGUS activity” value ([1]; flaked kernels at −29° C. for up to 3 months) was 14% and the “rGUS activity after heating” value ([2]; kernels, 50° C. for up to six days) was “fully retained”. For the same molecule, the “loss of initial rGUS activity” value ([2]; kernels, 70° C. for 8 hours) was 60%, the “rGUS activity after heating” value ([2]; kernels, 70° C. for one hour) was “did not significantly affect rGUS activity” and the “residual rGUS activity” value ([2]; kernels, 90° C. for one hour) was “No residual rGUS activity”. The “residual rGUS activity” value ([2]; kernels, 125° C. for 10 minutes) was “No residual rGUS activity”, the “rGUS activity after heating” value ([2]; whole kernels, 50° C. for up to eight hours) was “did not affect rGUS activity” and the rGUS activity loss [3] was “no loss of rGUS activity”. The “rGUS activity after extraction with detergent” value ([4]; 1% (v/v) SDS and 2% (v/v) ME in extraction buffer) was “inactive”, the “rGUS activity after corn oil extraction” value ([4]; germ defatted with hexane (˜60° C.)) was “did not affect the activity of rGUS” and the Specification activity ([5]; purified from defatted germ, solid-to-liquid ratio 1:10) was 36,000 U/mg. The Specification activity ([5]; purified from flaked corn, solid-to-liquid ratio 1:4) was 36,000 U/mg and the Specification activity ([5]; purified from full-fat germ, solid-to-liquid ratio 1:10) was 45,000 U/mg.
